Biological target: N-terminal domain of MtbClpC1 (residues 1-145) (Mycobacterium tuberculosis) (UniProt P9WPC9)
Assay: differential scanning fluorimetry

Sequence of UniProt P9WPC9 (P9WPC9 1-145): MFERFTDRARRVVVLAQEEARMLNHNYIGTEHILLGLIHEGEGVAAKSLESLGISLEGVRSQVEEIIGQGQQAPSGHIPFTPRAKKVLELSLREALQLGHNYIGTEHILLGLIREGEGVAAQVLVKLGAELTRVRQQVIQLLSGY

| Substance | ΔTm [°C] |
| --- | --- |
| ilamycin E (peptide) | 3 |
| ilamycin F (peptide) | 1 |
